Laboratory results from US20140050743A1, “BINDING PROTEINS TO INHIBITORS OF COAGULATION FACTORS” (BAYER INTELLECTUAL PROPERTY GMBH, priority 2011, published 2014).

Legend:
[1] = test system: rivaroxaban (prothrombin time); assay: Reversal of rivaroxaban's effect on prothrombin time (PT) in vitro, rat plasma; type: biochemical
Method: (§1) Citrated blood (0.11 M Na-citrate/blood, 1:9 v/v) was obtained from human donors by venipuncture or from anesthetized Wistar rats (Charles River) by aortic cannulation and centrifuged at 4000 g for 15 minutes for separation of platelet-poor plasma. […] Antidote was added to the Plasma-rivaroxaban mixture and incubated for another 10 minutes at room temperature. The PT assay was run using Recombiplastin (Instrumentation Laboratory) as tissue factor source on an AMAX 200 automated coagulometer (Trinity Biotech) according to manufacturer's instructions. The composition of the final assay volume is ⅓ plasma and ⅔ PT reagent. […] Data are given as means±sem from 5 experiments and represent final assay concentrations (Table 8 and FIGS. 7 and 8).

[2] = test system: rivaroxaban (prothrombin time); assay: Reversal of rivaroxaban's effect on prothrombin time (PT) in vitro, human plasma; type: biochemical
Method: as §1

[3] = test system: rivaroxaban induced FXa inhibition; assay: Functional neutralization of rivaroxaban in a biochemical Factor Xa activity assay; details: Table 6, 0.05 nM FXa, 0.6 nM rivaroxaban
Method: Serial dilutions of test compounds in assay buffer (50 mM HEPES pH 7.8, 250 mM NaCl, 6 mM CaCl2, 0.01% Brij35, 1 mM glutathione, 4 mM EDTA, 0.05% bovine serum albumin) were performed (typical concentrations ranging from 5 μM to 0.0007 μM).
20 μL of the diluted test compounds were placed in 384 well microtiter plates (Greiner, Frickenhausen, Germany), followed by the addition of 10 μL of a 1:400 dilution (250 μM) of the FXa substrate Pefafluor Xa (100 mM in DMSO, Loxo, Dossenheim, Germany) in assay buffer. […] Simultaneously, control reactions without rivaroxaban were started.
During incubation at 32° C., reaction progress curves were monitored using a fluorescence microtiter plate reader (e.g Tecan Ultra Evolution, Tecan Group Ltd., Mannedorf, Switzerland; excitation 360 nm, emission 465 nm).
The dilution of FXa was chosen that in the control reactions the reaction kinetics was linear, and less than 50% of the substrate was consumed (typical final FXa concentration in the assay: 0.05 nM). […] Results are depicted in FIG. 1.

[4] = Affinity by surface plasmon resonance (Biacore), immobilized Fab, analyte rivaroxaban; type: binding; details: Table 6, immobilized Fabs, SPR (Biacore)
Text: “Binding affinity” refers to the strength of the sum total of noncovalent interactions between a single binding site of a molecule and its binding partner. Unless indicated otherwise, as used herein, “binding affinity” refers to intrinsic binding affinity which reflects a 1:1 interaction between members of a binding pair (e.g. an antibody and an antigen). The dissociation constant “KD” is commonly used to describe the affinity between a molecule (such as an antibody) and its binding partner (such as an antigen) i.e. how tightly a ligand binds to a particular protein. Ligand-protein affinities are influenced by non-covalent intermolecular interactions between the two molecules Affinity can be measured by common methods known in the art, including those described herein. In one embodiment, the “KD” or “KD value” according to this invention is measured by using surface plasmon resonance assays using a Biacore T100 instrument (GE Healthcare Biacore, Inc.) according to Example 5. The dissociation equilibrium constant (KD) was calculated based on the ratio of association (kon) and dissociation rated (koff) constants, obtained by fitting sensograms with a first order 1:1 binding model using Biacore Evaluation Software. Other suitable devices are BIACORE(R)-2000, a BIACORE (R)-3000 (BIAcore, Inc., Piscataway, N.J.), or ProteOn XPR36 instrument (Bio-Rad Laboratories, Inc.).
Binding affinities of Fab-fragments were determined by surface plasmon resonance analysis on a Biacore T100 instrument (GE Healthcare Biacore, Inc.). Fab fragments were diluted to a final concentration of 10 μg/ml in 10 mM sodium acetate, pH 4.5, and immobilized on a CM5 chip (GE Healthcare Biacore, Inc.) at levels of 3000-5000RU by amine-coupling chemistry for flow cells 2, 3 and 4, respectively. Flow cell 1 was used as a reference. […] Sensograms were generated after in-line reference cell correction followed by buffer sample subtraction. The dissociation equilibrium constant (KD) was calculated based on the ratio of association and dissociation rated constants, obtained by fitting sensograms with a first order 1:1 binding model using BiaEvaluation Software.

[5] = ELISA-based activity assay of antibody variants with a competition step (300 nM rivaroxaban); type: binding; parameters: key: ++: Variants with an average ratio above wt plus 2×SD (standard deviation of the ratio) were considered as improved; −: variants with a ratio below wt minus 2×SD were considered as reduced in their binding affinity; +/−: All variants with a performance in between both thresholds; −−: Variants with average fluorescence counts below the negative control (non-expressing cells) plus 3×SD were considered as non-binding; details: Table 11: single and double amino acid substitutions within M18-G08, variant to wt ratio, 1-3 independent experiments
Method: To determine the activity of the mutated antibody variants on compound from Example 1K an equilibrium or dissociation limited ELISA assay format was used. Briefly, MTP plates (Nunc Maxisorp black, 460518) were coated with 4 μg/ml streptavidin (Calbiochem, 189730) diluted in coating buffer (Candor Bioscience GmbH, 121500) and incubated over night at 4° C. After washing with PBST, plates were blocked with 100% Smart Block (Candor Bioscience GmbH, 113500) in PBST for 1 h at room temperature and the washing step was repeated. […] After washing 10 μM Amplex Red (Invitrogen, A12222) were added and incubated for 10 to 30 min at room temperature followed by measurement of the fluorescence signal.
Provided in table 11 are several examples of single and/or double amino acid substitutions introduced into the heavy and/or the light chain of M18-G08 (wt). Performance of the variants was analyzed in quadruples in the ELISA with a competition step and the FXa deinhibition assay (FXa DIA). In the ELISA, averages were calculated and overall performance of variants was evaluated by comparing the variant to wt ratio from 1-3 independent experiments. […] Variants with average fluorescence counts below the negative control (non-expressing cells) plus 3×SD were considered as non-binding and marked with “−−”. […] Variants not analyzed are marked with “nd” (not determined). […]

O=C(NC[C@H]1CN(c2ccc(N3CCOCC3=O)cc2)C(=O)O1)c1ccc(Cl)s1 [Rivaroxaban, 5-Chloro-N-({(5S)-2-oxo-3-[4-(3-oxo-4-morpholinyl)phenyl]-1,3-oxazolidin-5-yl}-methyl)-2-thiophenecarboxamide, reference compound]
PT prolongation by rivaroxaban (x control) ([1]; rivaroxaban 0.4 μM): 1.9 x control
PT prolongation by rivaroxaban (x control) ([1]; rivaroxaban 0.8 μM): 2.6 x control
PT prolongation by rivaroxaban (x control) ([2]; rivaroxaban 0.17 μM): 1.8 x control
PT prolongation by rivaroxaban (x control) ([2]; rivaroxaban 0.33 μM): 2.2 x control

B1: M18-A10: antibody, Vh SEQ ID NO: 215, Vl SEQ ID NO: 216 (antibody, listed as Homo Sapiens, V domains shown)
VH: EVQLLESGGGLVQPGGSLRLSCAASGFTFSSYGMSWVRQAPGKGLEWVSGISGSGGSTYYADSVKGRFTISRDNSKNTLYLQMNSLRAEDTAVYYCARDGGYDELDYWGQGTLVTVTS
VL: QSVLTQPPSASGTPGQRVTISCTGSSSNIGAGYVVHWYQQLPGTAPKLLIYDNNKRPSGVPDRFSGSKSGTSASLAISGLRSEDEADYYCAAWDDSLSAWVFGGGTKLTVL
EC50 [3]: < 1000 nM
Kd [4]: < 500 nM

B2: M16-A03: antibody, Vh SEQ ID NO: 211, Vl SEQ ID NO: 212 (antibody, listed as Homo Sapiens, V domains shown)
VH: EVQLLESGGGLVQPGGSLRLSCAASGFTFSSYAMSWVRQAPGKGLEWVSGISGSGGSTFYADSVKGRFTISRDNSENTLYLQMNSLRAEDTAVYYCARQTSSGLAGYSYGLDPWGQGTLVTVTS
VL: QSVLTQPPSASGTPGQRVTISCTGSSSNIGAGYDVHWYQQLPGTAPKLLIYSNNQRPSGVPDRFSGSKSGTSASLAISGLRSEDEADYYCAGWDDSLSGWVFGGGTKLTVL
EC50 [3]: < 2000 nM
Kd [4]: < 500 nM

B3: M16-D05: antibody, Vh SEQ ID NO: 213, Vl SEQ ID NO: 214 (antibody, listed as Homo Sapiens, V domains shown)
VH: EVQLLESGGGLVQPGGSLRLSCAASGFTFSAYWMAWVRQAPGKGLEWVSSISSSSSYIYYADSVKGRFTISRDNSKNTLYLQMNSLRAEDTAVYYCARVTEGGLDYWGQGTLVTVTS
VL: QSVLTQPPSASGTPGQRVTISCSGSSSNIGNNAVNWYQQLPGTAPKLLIYRNNQRPSGVPDRFSGSKSGTSASLAISGLRSEDEADYYCQSYDSSLSGWVFGGGTKLTVL
EC50 [3]: < 1000 nM
Kd [4]: < 500 nM

B4: M25-E05: antibody, Vh SEQ ID NO: 219, Vl SEQ ID NO: 220 (antibody, listed as Homo Sapiens, V domains shown)
VH: EVQLLESGGGLVQPGGSLRLSCAASGFTFSNAWMSWVRQAPGKGLEWVSSIHWNGGYIGYAESVKGRFTISRDNSKNTLYLQMNSLRAEDTAVYYCARVTLDAVDYWGQGTLVTVTS
VL: QSVLTQPPSASGTPGQRVTISCSGSSSNIGNNAVNWYQQLPGTAPKLLIYRNNQRPSGVPDRFSGSKSGTSASLAISGLRSEDEADYYCQSYDNRLTAWVFGGGTKLTVL
EC50 [3]: < 1000 nM
Kd [4]: < 500 nM

B5: HC_N31S (antibody, V domains shown)
VH: EVQLLESGGGLVQPGGSLRLSCAASGFTFSSAWMSWVRQAPGKGLEWVSYISSSGSTIYYADSVKGRFTISRDNSKNTLYLQMNSLRAEDTAVYYCAREGLWAFDYWGQGTLVTVTS
VL: QSVLTQPPSASGTPGQRVTISCTGSSSNIGAGYVVHWYQQLPGTAPKLLIYDNNKRPSGVPDRFSGSKSGTSASLAISGLRSEDEADYYCAAWDDRLNGPVFGGGTKLTVLGQ
ELISA [5]: +/−
